US6156546 (Washington State University Research Foundation, dated 2000)

Tests used:
[1] = target: Human plasma fibronectin (human) (UniProt P02751); assay: soluble 125I-Fn bound to untreated whole C. jejuni, gamma counting
Human plasma fibronectin = Human plasma fibronectin (human, UniProt P02751-8, 125I-labelled (Iodogen method) or biotinylated (sulfo-NHS-biotin) in the ligand blots and the soluble binding assay; unlabelled when immobilised on coverslips); assay: ligand blot with 125I-labeled Fn

| Molecule | ng Fn bound [1] | binding result (Human plasma fibronectin) |
| --- | --- | --- |
| C. jejuni whole bacteria (isolate not stated) in the soluble 125I-Fn assay (cells without a defined receptor) | 380 ng |  |
| CadF protein of Campylobacter coli M275 (other) ADNNVKFEITPTLNHNYFEGNLDMDNRYAPGIRLGYHFDDFWLDQLELGLEHYSDVKYTNSTLTTDITRTYLSAIKGIDLGEKFYFYGLAGGGYEDFSKGAFDNKSGGFGHYGAGLKFRLSDSLALRLETRDQISFHDADHSWVSTLGISFGFGAKREKVVAEQVKEVAIEPRVAVPTQSQCPAEPREGAMLDENGCEKTISFEGHFGFDKVDINPAFEEKIKEIAQLLDENARYDTILEGHTDNIGSRAYNQKLSERRAESVAKELEKFGVDKDRIQTVGYGQDKPRSRNETKEGRADNRRVDAKFILR |  | binds |
